Experimental data published in the RNAGym collection of RNA variant scans (doi:10.1021/acssynbio.7b00057).

B1: Pistol ribozyme (parent)
chain: GGGUCGUUGUUCCAUAAUCGCGUGGAUAUGGCACGCAAGUUUCUACCGGGCACCGUAAAUGUCCGACUGGAGCCGUUCGGGCGGCUAUAAACAGACCUCAGGCCCGAAGCGUGGCGGCACCUGCCGCCGGUGGUAAAAAAGAUCGGAAGAGCACACGUCU

Variants of: B1
Assay: aptazyme ON/OFF ratio, guanine; higher = stronger switching; co-transcriptional cleavage with and without guanine

First: GGGUCGCCGUAAUAUAAUCGCGUGGAUAUGGCACGCAAGUUUCUACCGGGCACCGUAAAUGUCCGACUGGAGCCGUUCGGGCGGCUAUAAACAGACCUCAGGCCCGAAGCGUGGCGGCACCUGCCGCCGGUGGUAAAAAAGAUCGGAAGAGCACACGUCU
Second: GGGUCGCCGUAAGAUAAUCGCGUGGAUAUGGCACGCAAGUUUCUACCGGGCACCGUAAAUGUCCGACUGGAGCCGUUCGGGCGGCUAUAAACAGACCUCAGGCCCGAAGCGUGGCGGCACCUGCCGCCGGUGGUAAAAAAGAUCGGAAGAGCACACGUCU
The “aptazyme ON/OFF ratio” value of the first is higher: 1.31 for the first, 1.15 for the second.

Going from GGGUCGCCGUAAAAUAAUCGCGUGGAUAUGGCACGCAAGUUUCUACCGGGCACCGUAAAUGUCCGACUGGAGCCGUUCGGGCGGCUAUAAACAGACCUCAGGCCCGAAGCGUGGCGGCACCUGCCGCCGGUGGUAAAAAAGAUCGGAAGAGCACACGUCU to GGGUCGCCGUAUAAUAAUCGCGUGGAUAUGGCACGCAAGUUUCUACCGGGCACCGUAAAUGUCCGACUGGAGCCGUUCGGGCGGCUAUAAACAGACCUCAGGCCCGAAGCGUGGCGGCACCUGCCGCCGGUGGUAAAAAAGAUCGGAAGAGCACACGUCU, the “aptazyme ON/OFF ratio” value falls from 1.2 to 1.16.

First: GGGUCGCCGUAUGAUAAUCGCGUGGAUAUGGCACGCAAGUUUCUACCGGGCACCGUAAAUGUCCGACUGGAGCCGUUCGGGCGGCUAUAAACAGACCUCAGGCCCGAAGCGUGGCGGCACCUGCCGCCGGUGGUAAAAAAGAUCGGAAGAGCACACGUCU
Second: GGGUCGCCGUAUUAUAAUCGCGUGGAUAUGGCACGCAAGUUUCUACCGGGCACCGUAAAUGUCCGACUGGAGCCGUUCGGGCGGCUAUAAACAGACCUCAGGCCCGAAGCGUGGCGGCACCUGCCGCCGGUGGUAAAAAAGAUCGGAAGAGCACACGUCU
The “aptazyme ON/OFF ratio” value of the first is lower: 1.13 for the first, 1.37 for the second.

Going from GGGUCGCCGUAGAAUAAUCGCGUGGAUAUGGCACGCAAGUUUCUACCGGGCACCGUAAAUGUCCGACUGGAGCCGUUCGGGCGGCUAUAAACAGACCUCAGGCCCGAAGCGUGGCGGCACCUGCCGCCGGUGGUAAAAAAGAUCGGAAGAGCACACGUCU to GGGUCGCCGUAGGAUAAUCGCGUGGAUAUGGCACGCAAGUUUCUACCGGGCACCGUAAAUGUCCGACUGGAGCCGUUCGGGCGGCUAUAAACAGACCUCAGGCCCGAAGCGUGGCGGCACCUGCCGCCGGUGGUAAAAAAGAUCGGAAGAGCACACGUCU, the “aptazyme ON/OFF ratio” value falls from 1.13 to 1.12.

Going from GGGUCGCCGUAGUAUAAUCGCGUGGAUAUGGCACGCAAGUUUCUACCGGGCACCGUAAAUGUCCGACUGGAGCCGUUCGGGCGGCUAUAAACAGACCUCAGGCCCGAAGCGUGGCGGCACCUGCCGCCGGUGGUAAAAAAGAUCGGAAGAGCACACGUCU to GGGUCGCCGUACCAUAAUCGCGUGGAUAUGGCACGCAAGUUUCUACCGGGCACCGUAAAUGUCCGACUGGAGCCGUUCGGGCGGCUAUAAACAGACCUCAGGCCCGAAGCGUGGCGGCACCUGCCGCCGGUGGUAAAAAAGAUCGGAAGAGCACACGUCU, the “aptazyme ON/OFF ratio” value rises from 1.12 to 1.66.

Compared with GGGUCGCCGUCCCAUAAUCGCGUGGAUAUGGCACGCAAGUUUCUACCGGGCACCGUAAAUGUCCGACUGGAGCCGUUCGGGCGGCUAUAAACAGACCUCAGGCCCGAAGCGUGGCGGCACCUGCCGCCGGUGGUAAAAAAGAUCGGAAGAGCACACGUCU, GGGUCGCCGUCAAAUAAUCGCGUGGAUAUGGCACGCAAGUUUCUACCGGGCACCGUAAAUGUCCGACUGGAGCCGUUCGGGCGGCUAUAAACAGACCUCAGGCCCGAAGCGUGGCGGCACCUGCCGCCGGUGGUAAAAAAGAUCGGAAGAGCACACGUCU is lower in “aptazyme ON/OFF ratio” value: 2.42 for the first, 1.3 for the second.

First: GGGUCGCCGGGGUAUAAUCGCGUGGAUAUGGCACGCAAGUUUCUACCGGGCACCGUAAAUGUCCGACUGGAGCCGUUCGGGCGGCUAUAAACAGACCUCAGGCCCGAAGCGUGGCGGCACCUGCCGCCGGUGGUAAAAAAGAUCGGAAGAGCACACGUCU
Second: GGGUCGCCGGGGGAUAAUCGCGUGGAUAUGGCACGCAAGUUUCUACCGGGCACCGUAAAUGUCCGACUGGAGCCGUUCGGGCGGCUAUAAACAGACCUCAGGCCCGAAGCGUGGCGGCACCUGCCGCCGGUGGUAAAAAAGAUCGGAAGAGCACACGUCU
The “aptazyme ON/OFF ratio” value of the first is higher: 1.14 for the first, 1.11 for the second.

Going from GGGUCGCCGGGGAAUAAUCGCGUGGAUAUGGCACGCAAGUUUCUACCGGGCACCGUAAAUGUCCGACUGGAGCCGUUCGGGCGGCUAUAAACAGACCUCAGGCCCGAAGCGUGGCGGCACCUGCCGCCGGUGGUAAAAAAGAUCGGAAGAGCACACGUCU to GGGUCGCCGGCCUAUAAUCGCGUGGAUAUGGCACGCAAGUUUCUACCGGGCACCGUAAAUGUCCGACUGGAGCCGUUCGGGCGGCUAUAAACAGACCUCAGGCCCGAAGCGUGGCGGCACCUGCCGCCGGUGGUAAAAAAGAUCGGAAGAGCACACGUCU, the “aptazyme ON/OFF ratio” value rises from 1.13 to 1.16.

Compared with GGGUCGCCGGGUUAUAAUCGCGUGGAUAUGGCACGCAAGUUUCUACCGGGCACCGUAAAUGUCCGACUGGAGCCGUUCGGGCGGCUAUAAACAGACCUCAGGCCCGAAGCGUGGCGGCACCUGCCGCCGGUGGUAAAAAAGAUCGGAAGAGCACACGUCU, GGGUCGCCGGGUGAUAAUCGCGUGGAUAUGGCACGCAAGUUUCUACCGGGCACCGUAAAUGUCCGACUGGAGCCGUUCGGGCGGCUAUAAACAGACCUCAGGCCCGAAGCGUGGCGGCACCUGCCGCCGGUGGUAAAAAAGAUCGGAAGAGCACACGUCU is higher in “aptazyme ON/OFF ratio” value: 1.08 for the first, 1.12 for the second.

Going from GGGUCGCCGGGUAAUAAUCGCGUGGAUAUGGCACGCAAGUUUCUACCGGGCACCGUAAAUGUCCGACUGGAGCCGUUCGGGCGGCUAUAAACAGACCUCAGGCCCGAAGCGUGGCGGCACCUGCCGCCGGUGGUAAAAAAGAUCGGAAGAGCACACGUCU to GGGUCGCCGGGCGAUAAUCGCGUGGAUAUGGCACGCAAGUUUCUACCGGGCACCGUAAAUGUCCGACUGGAGCCGUUCGGGCGGCUAUAAACAGACCUCAGGCCCGAAGCGUGGCGGCACCUGCCGCCGGUGGUAAAAAAGAUCGGAAGAGCACACGUCU, the “aptazyme ON/OFF ratio” value rises from 1.1 to 1.11.

First: GGGUCGCCGGGCAAUAAUCGCGUGGAUAUGGCACGCAAGUUUCUACCGGGCACCGUAAAUGUCCGACUGGAGCCGUUCGGGCGGCUAUAAACAGACCUCAGGCCCGAAGCGUGGCGGCACCUGCCGCCGGUGGUAAAAAAGAUCGGAAGAGCACACGUCU
Second: GGGUCGCCGGGCUAUAAUCGCGUGGAUAUGGCACGCAAGUUUCUACCGGGCACCGUAAAUGUCCGACUGGAGCCGUUCGGGCGGCUAUAAACAGACCUCAGGCCCGAAGCGUGGCGGCACCUGCCGCCGGUGGUAAAAAAGAUCGGAAGAGCACACGUCU
The “aptazyme ON/OFF ratio” value of the first is higher: 1.24 for the first, 1.16 for the second.

First: GGGUCGCCGUAGCAUAAUCGCGUGGAUAUGGCACGCAAGUUUCUACCGGGCACCGUAAAUGUCCGACUGGAGCCGUUCGGGCGGCUAUAAACAGACCUCAGGCCCGAAGCGUGGCGGCACCUGCCGCCGGUGGUAAAAAAGAUCGGAAGAGCACACGUCU
Second: GGGUCGCCGUAUCAUAAUCGCGUGGAUAUGGCACGCAAGUUUCUACCGGGCACCGUAAAUGUCCGACUGGAGCCGUUCGGGCGGCUAUAAACAGACCUCAGGCCCGAAGCGUGGCGGCACCUGCCGCCGGUGGUAAAAAAGAUCGGAAGAGCACACGUCU
The “aptazyme ON/OFF ratio” value of the first is lower: 1.14 for the first, 1.16 for the second.

Going from GGGUCGCCGUAACAUAAUCGCGUGGAUAUGGCACGCAAGUUUCUACCGGGCACCGUAAAUGUCCGACUGGAGCCGUUCGGGCGGCUAUAAACAGACCUCAGGCCCGAAGCGUGGCGGCACCUGCCGCCGGUGGUAAAAAAGAUCGGAAGAGCACACGUCU to GGGUCGCCGGGAGAUAAUCGCGUGGAUAUGGCACGCAAGUUUCUACCGGGCACCGUAAAUGUCCGACUGGAGCCGUUCGGGCGGCUAUAAACAGACCUCAGGCCCGAAGCGUGGCGGCACCUGCCGCCGGUGGUAAAAAAGAUCGGAAGAGCACACGUCU, the “aptazyme ON/OFF ratio” value falls from 1.34 to 1.11.

Going from GGGUCGCCGGGAAAUAAUCGCGUGGAUAUGGCACGCAAGUUUCUACCGGGCACCGUAAAUGUCCGACUGGAGCCGUUCGGGCGGCUAUAAACAGACCUCAGGCCCGAAGCGUGGCGGCACCUGCCGCCGGUGGUAAAAAAGAUCGGAAGAGCACACGUCU to GGGUCGCCGGGAUAUAAUCGCGUGGAUAUGGCACGCAAGUUUCUACCGGGCACCGUAAAUGUCCGACUGGAGCCGUUCGGGCGGCUAUAAACAGACCUCAGGCCCGAAGCGUGGCGGCACCUGCCGCCGGUGGUAAAAAAGAUCGGAAGAGCACACGUCU, the “aptazyme ON/OFF ratio” value falls from 1.14 to 1.13.

Compared with GGGUCGCCGUCACAUAAUCGCGUGGAUAUGGCACGCAAGUUUCUACCGGGCACCGUAAAUGUCCGACUGGAGCCGUUCGGGCGGCUAUAAACAGACCUCAGGCCCGAAGCGUGGCGGCACCUGCCGCCGGUGGUAAAAAAGAUCGGAAGAGCACACGUCU, GGGUCGCCGUACAAUAAUCGCGUGGAUAUGGCACGCAAGUUUCUACCGGGCACCGUAAAUGUCCGACUGGAGCCGUUCGGGCGGCUAUAAACAGACCUCAGGCCCGAAGCGUGGCGGCACCUGCCGCCGGUGGUAAAAAAGAUCGGAAGAGCACACGUCU is lower in “aptazyme ON/OFF ratio” value: 1.33 for the first, 1.21 for the second.

Going from GGGUCGCCGUACGAUAAUCGCGUGGAUAUGGCACGCAAGUUUCUACCGGGCACCGUAAAUGUCCGACUGGAGCCGUUCGGGCGGCUAUAAACAGACCUCAGGCCCGAAGCGUGGCGGCACCUGCCGCCGGUGGUAAAAAAGAUCGGAAGAGCACACGUCU to GGGUCGCCGUACUAUAAUCGCGUGGAUAUGGCACGCAAGUUUCUACCGGGCACCGUAAAUGUCCGACUGGAGCCGUUCGGGCGGCUAUAAACAGACCUCAGGCCCGAAGCGUGGCGGCACCUGCCGCCGGUGGUAAAAAAGAUCGGAAGAGCACACGUCU, the “aptazyme ON/OFF ratio” value rises from 1.19 to 1.27.

Going from GGGUCGCCGGGACAUAAUCGCGUGGAUAUGGCACGCAAGUUUCUACCGGGCACCGUAAAUGUCCGACUGGAGCCGUUCGGGCGGCUAUAAACAGACCUCAGGCCCGAAGCGUGGCGGCACCUGCCGCCGGUGGUAAAAAAGAUCGGAAGAGCACACGUCU to GGGUCGCCGGGGCAUAAUCGCGUGGAUAUGGCACGCAAGUUUCUACCGGGCACCGUAAAUGUCCGACUGGAGCCGUUCGGGCGGCUAUAAACAGACCUCAGGCCCGAAGCGUGGCGGCACCUGCCGCCGGUGGUAAAAAAGAUCGGAAGAGCACACGUCU, the “aptazyme ON/OFF ratio” value falls from 1.26 to 1.2.

Compared with GGGUCGCCGGGUCAUAAUCGCGUGGAUAUGGCACGCAAGUUUCUACCGGGCACCGUAAAUGUCCGACUGGAGCCGUUCGGGCGGCUAUAAACAGACCUCAGGCCCGAAGCGUGGCGGCACCUGCCGCCGGUGGUAAAAAAGAUCGGAAGAGCACACGUCU, GGGUCGCCGGGCCAUAAUCGCGUGGAUAUGGCACGCAAGUUUCUACCGGGCACCGUAAAUGUCCGACUGGAGCCGUUCGGGCGGCUAUAAACAGACCUCAGGCCCGAAGCGUGGCGGCACCUGCCGCCGGUGGUAAAAAAGAUCGGAAGAGCACACGUCU is higher in “aptazyme ON/OFF ratio” value: 1.22 for the first, 1.49 for the second.
